Measurements from article PMC7862258.

What was measured:
[1] = anti-FLAG western blot of conditioned media, HEK293A; details: glycan lost; for expression_or_secretion, other: relative secretion, % of N249Q F3: control: same variant with N249 glycan (normalised to WT F3), arms normalised to N249Q F3
[2] = anti-FLAG western blot of cell lysate (intracellular level), HEK293A; details: glycan lost; control: WT F3

B1: fibulin-3 (F3): N249Q (protein)
parent chain: MLKALFLTMLTLALVKSQDTEETITYTQCTDGYEWDPVRQQCKDIDECDIVPDACKGGMKCVNHYGGYLCLPKTAQIIVNNEQPQQETQPAEGTSGATTGVVAASSMATSGVLPGGGFVASAAAVAGPEMQTGRNNFVIRRNPADPQRIPSNPSHRIQCAAGYEQSEHNVCQDIDECTAGTHNCRADQVCINLRGSFACQCPPGYQKRGEQCVDIDECTIPPYCHQRCVNTPGSFYCQCSPGFQLAANNYTCVDINECDASNQCAQQCYNILGSFICQCNQGYELSSDRLNCEDIDECRTSSYLCQYQCVNEPGKFSCMCPQGYQVVRSRTCQDINECETTNECREDEMCWNYHGGFRCYPRNPCQDPYILTPENRCVCPVSNAMCRELPQSIVYKYMSIRSDRSVPSDIFQIQATTIYANTINTFRIKSGNENGEFYLRQTSPVSAMLVLVKSLSGPREHIVDLEMLTVSSIGTFRTSSVLRLTIIVGPFSF
[1]; control: WT F3
  expression_or_secretion, percent_of_wt: no change
[2]
  expression_or_secretion, percent_of_wt: no change

B2: fibulin-3 (F3): R140W/N249Q (protein)
parent chain: MLKALFLTMLTLALVKSQDTEETITYTQCTDGYEWDPVRQQCKDIDECDIVPDACKGGMKCVNHYGGYLCLPKTAQIIVNNEQPQQETQPAEGTSGATTGVVAASSMATSGVLPGGGFVASAAAVAGPEMQTGRNNFVIRRNPADPQRIPSNPSHRIQCAAGYEQSEHNVCQDIDECTAGTHNCRADQVCINLRGSFACQCPPGYQKRGEQCVDIDECTIPPYCHQRCVNTPGSFYCQCSPGFQLAANNYTCVDINECDASNQCAQQCYNILGSFICQCNQGYELSSDRLNCEDIDECRTSSYLCQYQCVNEPGKFSCMCPQGYQVVRSRTCQDINECETTNECREDEMCWNYHGGFRCYPRNPCQDPYILTPENRCVCPVSNAMCRELPQSIVYKYMSIRSDRSVPSDIFQIQATTIYANTINTFRIKSGNENGEFYLRQTSPVSAMLVLVKSLSGPREHIVDLEMLTVSSIGTFRTSSVLRLTIIVGPFSF
[1]
  expression_or_secretion, other: relative secretion, % of N249Q F3: no change

B3: fibulin-3 (F3): D49A/N249Q (protein)
parent chain: MLKALFLTMLTLALVKSQDTEETITYTQCTDGYEWDPVRQQCKDIDECDIVPDACKGGMKCVNHYGGYLCLPKTAQIIVNNEQPQQETQPAEGTSGATTGVVAASSMATSGVLPGGGFVASAAAVAGPEMQTGRNNFVIRRNPADPQRIPSNPSHRIQCAAGYEQSEHNVCQDIDECTAGTHNCRADQVCINLRGSFACQCPPGYQKRGEQCVDIDECTIPPYCHQRCVNTPGSFYCQCSPGFQLAANNYTCVDINECDASNQCAQQCYNILGSFICQCNQGYELSSDRLNCEDIDECRTSSYLCQYQCVNEPGKFSCMCPQGYQVVRSRTCQDINECETTNECREDEMCWNYHGGFRCYPRNPCQDPYILTPENRCVCPVSNAMCRELPQSIVYKYMSIRSDRSVPSDIFQIQATTIYANTINTFRIKSGNENGEFYLRQTSPVSAMLVLVKSLSGPREHIVDLEMLTVSSIGTFRTSSVLRLTIIVGPFSF
[1]
  expression_or_secretion, other: relative secretion, % of N249Q F3: no change

B4: fibulin-3 (F3): N249Q/R387Q (protein)
parent chain: MLKALFLTMLTLALVKSQDTEETITYTQCTDGYEWDPVRQQCKDIDECDIVPDACKGGMKCVNHYGGYLCLPKTAQIIVNNEQPQQETQPAEGTSGATTGVVAASSMATSGVLPGGGFVASAAAVAGPEMQTGRNNFVIRRNPADPQRIPSNPSHRIQCAAGYEQSEHNVCQDIDECTAGTHNCRADQVCINLRGSFACQCPPGYQKRGEQCVDIDECTIPPYCHQRCVNTPGSFYCQCSPGFQLAANNYTCVDINECDASNQCAQQCYNILGSFICQCNQGYELSSDRLNCEDIDECRTSSYLCQYQCVNEPGKFSCMCPQGYQVVRSRTCQDINECETTNECREDEMCWNYHGGFRCYPRNPCQDPYILTPENRCVCPVSNAMCRELPQSIVYKYMSIRSDRSVPSDIFQIQATTIYANTINTFRIKSGNENGEFYLRQTSPVSAMLVLVKSLSGPREHIVDLEMLTVSSIGTFRTSSVLRLTIIVGPFSF
[1]
  expression_or_secretion, other: relative secretion, % of N249Q F3: no change

B5: fibulin-3 (F3): I220F/N249Q (protein)
parent chain: MLKALFLTMLTLALVKSQDTEETITYTQCTDGYEWDPVRQQCKDIDECDIVPDACKGGMKCVNHYGGYLCLPKTAQIIVNNEQPQQETQPAEGTSGATTGVVAASSMATSGVLPGGGFVASAAAVAGPEMQTGRNNFVIRRNPADPQRIPSNPSHRIQCAAGYEQSEHNVCQDIDECTAGTHNCRADQVCINLRGSFACQCPPGYQKRGEQCVDIDECTIPPYCHQRCVNTPGSFYCQCSPGFQLAANNYTCVDINECDASNQCAQQCYNILGSFICQCNQGYELSSDRLNCEDIDECRTSSYLCQYQCVNEPGKFSCMCPQGYQVVRSRTCQDINECETTNECREDEMCWNYHGGFRCYPRNPCQDPYILTPENRCVCPVSNAMCRELPQSIVYKYMSIRSDRSVPSDIFQIQATTIYANTINTFRIKSGNENGEFYLRQTSPVSAMLVLVKSLSGPREHIVDLEMLTVSSIGTFRTSSVLRLTIIVGPFSF
[1]
  expression_or_secretion, other: relative secretion, % of N249Q F3: no change
